Assay results taken from patent US20140206609A1 (Sanofi, published 2014).
*1 amine or outer side, *2 acyl side, *3 side chain or, on linkers, in order; H or OH if unused. Where no end group is shown, it is not given here. Side-chain parts run from the residue outwards. [ ]: non-standard residue; d: D form. The star is where a group is joined. γGlu = O=C(O)[C@H](CCC(=O)[*:2])N[*:1]; Palmitoyl = CCCCCCCCCCCCCCCC(=O)*; Aib = CC(C)(N)C(=O)O

T1: human GIP receptor (human, UniProt P48546 22-466)
T1 sequence (looked up): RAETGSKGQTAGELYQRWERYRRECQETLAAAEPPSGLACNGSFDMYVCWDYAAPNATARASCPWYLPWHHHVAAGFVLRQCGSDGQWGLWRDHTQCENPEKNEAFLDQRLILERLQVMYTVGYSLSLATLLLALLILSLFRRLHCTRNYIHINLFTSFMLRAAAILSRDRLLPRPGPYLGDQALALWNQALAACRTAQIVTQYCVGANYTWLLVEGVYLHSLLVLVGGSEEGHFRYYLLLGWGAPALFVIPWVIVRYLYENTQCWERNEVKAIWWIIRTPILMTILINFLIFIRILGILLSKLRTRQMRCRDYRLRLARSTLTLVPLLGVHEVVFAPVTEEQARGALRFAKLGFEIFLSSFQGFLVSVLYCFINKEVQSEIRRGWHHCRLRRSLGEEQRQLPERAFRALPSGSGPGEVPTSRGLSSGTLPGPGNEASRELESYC

B1: SEQ ID NO: 8 (peptide)
peptide: Y[Aib]QGTFTSDLSIQK([γGlu-Palmitoyl])EKRAA[Aib]EFIEWLKNTGPSSGAPPPS-NH2
modifications: N-terminus assumed
SMILES: CCCCCCCCCCCCCCCC(=O)N[C@@H](CCC(=O)NCCCC[C@H](NC(=O)[C@H](CCC(N)=O)NC(=O)[C@@H](NC(=O)[C@H](CO)NC(=O)[C@H](CC(C)C)NC(=O)[C@H](CC(=O)O)NC(=O)[C@H](CO)NC(=O)[C@@H](NC(=O)[C@H](Cc1ccccc1)NC(=O)[C@@H](NC(=O)CNC(=O)[C@H](CCC(N)=O)NC(=O)C(C)(C)NC(=O)[C@@H](N)Cc1ccc(O)cc1)[C@@H](C)O)[C@@H](C)O)[C@@H](C)CC)C(=O)N[C@@H](CCC(=O)O)C(=O)N[C@@H](CCCCN)C(=O)N[C@@H](CCCNC(=N)N)C(=O)N[C@@H](C)C(=O)N[C@@H](C)C(=O)NC(C)(C)C(=O)N[C@@H](CCC(=O)O)C(=O)N[C@@H](Cc1ccccc1)C(=O)N[C@H](C(=O)N[C@@H](CCC(=O)O)C(=O)N[C@@H](Cc1c[nH]c2ccccc12)C(=O)N[C@@H](CC(C)C)C(=O)N[C@@H](CCCCN)C(=O)N[C@@H](CC(N)=O)C(=O)N[C@H](C(=O)NCC(=O)N1CCC[C@H]1C(=O)N[C@@H](CO)C(=O)N[C@@H](CO)C(=O)NCC(=O)N[C@@H](C)C(=O)N1CCC[C@H]1C(=O)N1CCC[C@H]1C(=O)N1CCC[C@H]1C(=O)N[C@@H](CO)C(N)=O)[C@@H](C)O)[C@@H](C)CC)C(=O)O
B2: SEQ ID NO: 38 (peptide)
peptide: Y[Aib]QGTFTSDLSIQK([γGlu-Palmitoyl])DKRAA[Aib]EFIEWLKNTGPSSGAPPPS-NH2
modifications: N-terminus assumed
SMILES: CCCCCCCCCCCCCCCC(=O)N[C@@H](CCC(=O)NCCCC[C@H](NC(=O)[C@H](CCC(N)=O)NC(=O)[C@@H](NC(=O)[C@H](CO)NC(=O)[C@H](CC(C)C)NC(=O)[C@H](CC(=O)O)NC(=O)[C@H](CO)NC(=O)[C@@H](NC(=O)[C@H](Cc1ccccc1)NC(=O)[C@@H](NC(=O)CNC(=O)[C@H](CCC(N)=O)NC(=O)C(C)(C)NC(=O)[C@@H](N)Cc1ccc(O)cc1)[C@@H](C)O)[C@@H](C)O)[C@@H](C)CC)C(=O)N[C@@H](CC(=O)O)C(=O)N[C@@H](CCCCN)C(=O)N[C@@H](CCCNC(=N)N)C(=O)N[C@@H](C)C(=O)N[C@@H](C)C(=O)NC(C)(C)C(=O)N[C@@H](CCC(=O)O)C(=O)N[C@@H](Cc1ccccc1)C(=O)N[C@H](C(=O)N[C@@H](CCC(=O)O)C(=O)N[C@@H](Cc1c[nH]c2ccccc12)C(=O)N[C@@H](CC(C)C)C(=O)N[C@@H](CCCCN)C(=O)N[C@@H](CC(N)=O)C(=O)N[C@H](C(=O)NCC(=O)N1CCC[C@H]1C(=O)N[C@@H](CO)C(=O)N[C@@H](CO)C(=O)NCC(=O)N[C@@H](C)C(=O)N1CCC[C@H]1C(=O)N1CCC[C@H]1C(=O)N1CCC[C@H]1C(=O)N[C@@H](CO)C(N)=O)[C@@H](C)O)[C@@H](C)CC)C(=O)O

Columns and labels:
Assay in all cases: cell-based or functional assay
human GIP receptor = molecular target: T1, human GIP receptor
human GLP-1 receptor = human GLP-1 receptor (human, UniProt P43220 24-463)
human glucagon receptor = human glucagon receptor (human, UniProt P47871 26-477)
human glucagon receptor, sequence (P47871 26-477): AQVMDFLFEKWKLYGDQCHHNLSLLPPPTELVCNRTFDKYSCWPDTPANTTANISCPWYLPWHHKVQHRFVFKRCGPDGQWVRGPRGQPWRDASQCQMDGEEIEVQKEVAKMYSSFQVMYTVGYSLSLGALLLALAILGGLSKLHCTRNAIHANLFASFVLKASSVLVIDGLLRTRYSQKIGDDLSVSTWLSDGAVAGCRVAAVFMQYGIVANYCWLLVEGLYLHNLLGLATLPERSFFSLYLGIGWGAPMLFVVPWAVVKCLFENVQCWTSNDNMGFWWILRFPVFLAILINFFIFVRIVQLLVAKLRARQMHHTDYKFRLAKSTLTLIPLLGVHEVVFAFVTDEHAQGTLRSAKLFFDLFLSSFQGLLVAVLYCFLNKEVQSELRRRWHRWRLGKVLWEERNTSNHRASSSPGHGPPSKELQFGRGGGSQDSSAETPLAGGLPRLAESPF

Binder	EC50 hGIP R [pM] (human GIP receptor)	EC50 hGLP-1 R [pM] (human GLP-1 receptor)	EC50 hGLUC R [pM] (human glucagon receptor)
B1	9.8	5.3	18.3
B2	11.2	6.7	11.4
